Reference: patent US20120238493A1 (INDIANA UNIVERSITY RESEARCH AND TECHNOLOGY, published 2012)
*1 amine or outer side, *2 acyl side, *3 side chain or, on linkers, in order; H or OH if unused. Where no end group is shown, it is not given here. Side-chain parts run from the residue outwards. [ ]: non-standard residue; d: D form. The star is where a group is joined. γGlu = O=C(O)[C@H](CCC(=O)[*:2])N[*:1]; Palmitoyl = CCCCCCCCCCCCCCCC(=O)*; Myristoyl = CCCCCCCCCCCCCC(=O)*; 40K‑ME = not defined here; 40K‑TE = not defined here; Ac3c = NC1(C(=O)O)CC1; Aib = CC(C)(N)C(=O)O

T1: GIP receptor (UniProt P48546 22-466, limits assumed)
T1 sequence (looked up): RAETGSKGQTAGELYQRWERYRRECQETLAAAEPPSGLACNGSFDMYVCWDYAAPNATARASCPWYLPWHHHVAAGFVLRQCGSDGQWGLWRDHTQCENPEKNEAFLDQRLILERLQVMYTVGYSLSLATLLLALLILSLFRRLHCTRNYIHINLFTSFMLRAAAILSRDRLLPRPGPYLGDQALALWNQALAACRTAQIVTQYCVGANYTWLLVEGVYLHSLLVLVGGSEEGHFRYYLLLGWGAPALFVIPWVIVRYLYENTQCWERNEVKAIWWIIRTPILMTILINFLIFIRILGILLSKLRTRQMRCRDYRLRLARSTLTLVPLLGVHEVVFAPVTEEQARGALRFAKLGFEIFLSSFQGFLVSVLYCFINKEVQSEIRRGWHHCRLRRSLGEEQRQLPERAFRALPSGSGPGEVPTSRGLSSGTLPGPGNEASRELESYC

B1: peptide of SEQ ID NO: 52 (peptide)
peptide: H[Aib]QGTFTSDYSIYLDKQAA[Aib]EFVNWLLAGGPSSGAPPPSC-NH2
modifications: N-terminus assumed
SMILES: CC[C@H](C)[C@H](NC(=O)[C@H](CO)NC(=O)[C@H](Cc1ccc(O)cc1)NC(=O)[C@H](CC(=O)O)NC(=O)[C@H](CO)NC(=O)[C@@H](NC(=O)[C@H](Cc1ccccc1)NC(=O)[C@@H](NC(=O)CNC(=O)[C@H](CCC(N)=O)NC(=O)C(C)(C)NC(=O)[C@@H](N)Cc1c[nH]cn1)[C@@H](C)O)[C@@H](C)O)C(=O)N[C@@H](Cc1ccc(O)cc1)C(=O)N[C@@H](CC(C)C)C(=O)N[C@@H](CC(=O)O)C(=O)N[C@@H](CCCCN)C(=O)N[C@@H](CCC(N)=O)C(=O)N[C@@H](C)C(=O)N[C@@H](C)C(=O)NC(C)(C)C(=O)N[C@@H](CCC(=O)O)C(=O)N[C@@H](Cc1ccccc1)C(=O)N[C@H](C(=O)N[C@@H](CC(N)=O)C(=O)N[C@@H](Cc1c[nH]c2ccccc12)C(=O)N[C@@H](CC(C)C)C(=O)N[C@@H](CC(C)C)C(=O)N[C@@H](C)C(=O)NCC(=O)NCC(=O)N1CCC[C@H]1C(=O)N[C@@H](CO)C(=O)N[C@@H](CO)C(=O)NCC(=O)N[C@@H](C)C(=O)N1CCC[C@H]1C(=O)N1CCC[C@H]1C(=O)N1CCC[C@H]1C(=O)N[C@@H](CO)C(=O)N[C@@H](CS)C(N)=O)C(C)C
B2: peptide of SEQ ID NO: 50 (peptide)
peptide: Y[dS]QGTFTSDYSIYLDKQAA[Aib]EFVNWLLAGGPSSGAPPPSC-NH2
modifications: N-terminus assumed
SMILES: CC[C@H](C)[C@H](NC(=O)[C@H](CO)NC(=O)[C@H](Cc1ccc(O)cc1)NC(=O)[C@H](CC(=O)O)NC(=O)[C@H](CO)NC(=O)[C@@H](NC(=O)[C@H](Cc1ccccc1)NC(=O)[C@@H](NC(=O)CNC(=O)[C@H](CCC(N)=O)NC(=O)[C@@H](CO)NC(=O)[C@@H](N)Cc1ccc(O)cc1)[C@@H](C)O)[C@@H](C)O)C(=O)N[C@@H](Cc1ccc(O)cc1)C(=O)N[C@@H](CC(C)C)C(=O)N[C@@H](CC(=O)O)C(=O)N[C@@H](CCCCN)C(=O)N[C@@H](CCC(N)=O)C(=O)N[C@@H](C)C(=O)N[C@@H](C)C(=O)NC(C)(C)C(=O)N[C@@H](CCC(=O)O)C(=O)N[C@@H](Cc1ccccc1)C(=O)N[C@H](C(=O)N[C@@H](CC(N)=O)C(=O)N[C@@H](Cc1c[nH]c2ccccc12)C(=O)N[C@@H](CC(C)C)C(=O)N[C@@H](CC(C)C)C(=O)N[C@@H](C)C(=O)NCC(=O)NCC(=O)N1CCC[C@H]1C(=O)N[C@@H](CO)C(=O)N[C@@H](CO)C(=O)NCC(=O)N[C@@H](C)C(=O)N1CCC[C@H]1C(=O)N1CCC[C@H]1C(=O)N1CCC[C@H]1C(=O)N[C@@H](CO)C(=O)N[C@@H](CS)C(N)=O)C(C)C
B3: peptide of SEQ ID NO: 54 (peptide)
peptide: Y[Aib]QGTFTSDYSIYLDKQAA[Aib]EFV[Aib]WLLAGGPSSGAPPPSC-NH2
modifications: N-terminus assumed
SMILES: CC[C@H](C)[C@H](NC(=O)[C@H](CO)NC(=O)[C@H](Cc1ccc(O)cc1)NC(=O)[C@H](CC(=O)O)NC(=O)[C@H](CO)NC(=O)[C@@H](NC(=O)[C@H](Cc1ccccc1)NC(=O)[C@@H](NC(=O)CNC(=O)[C@H](CCC(N)=O)NC(=O)C(C)(C)NC(=O)[C@@H](N)Cc1ccc(O)cc1)[C@@H](C)O)[C@@H](C)O)C(=O)N[C@@H](Cc1ccc(O)cc1)C(=O)N[C@@H](CC(C)C)C(=O)N[C@@H](CC(=O)O)C(=O)N[C@@H](CCCCN)C(=O)N[C@@H](CCC(N)=O)C(=O)N[C@@H](C)C(=O)N[C@@H](C)C(=O)NC(C)(C)C(=O)N[C@@H](CCC(=O)O)C(=O)N[C@@H](Cc1ccccc1)C(=O)N[C@H](C(=O)NC(C)(C)C(=O)N[C@@H](Cc1c[nH]c2ccccc12)C(=O)N[C@@H](CC(C)C)C(=O)N[C@@H](CC(C)C)C(=O)N[C@@H](C)C(=O)NCC(=O)NCC(=O)N1CCC[C@H]1C(=O)N[C@@H](CO)C(=O)N[C@@H](CO)C(=O)NCC(=O)N[C@@H](C)C(=O)N1CCC[C@H]1C(=O)N1CCC[C@H]1C(=O)N1CCC[C@H]1C(=O)N[C@@H](CO)C(=O)N[C@@H](CS)C(N)=O)C(C)C
B4: peptide of SEQ ID NO: 59 (peptide)
peptide: Y[Aib]QGTFTSDYSIYLDKEAA[Aib]KFVNWLLAGGPSSGAPPPSC(40K‑TE)-NH2
modifications: lactam (positions not given here); reading uncertain; also: lactam between underlined residues, underlining not shown
B5: peptide of SEQ ID NO: 48 (peptide)
peptide: H[dS]QGTFTSDYSIYLDKQAA[Aib]EFVNWLLAGGPSSGAPPPSC-NH2
modifications: N-terminus assumed
SMILES: CC[C@H](C)[C@H](NC(=O)[C@H](CO)NC(=O)[C@H](Cc1ccc(O)cc1)NC(=O)[C@H](CC(=O)O)NC(=O)[C@H](CO)NC(=O)[C@@H](NC(=O)[C@H](Cc1ccccc1)NC(=O)[C@@H](NC(=O)CNC(=O)[C@H](CCC(N)=O)NC(=O)[C@@H](CO)NC(=O)[C@@H](N)Cc1c[nH]cn1)[C@@H](C)O)[C@@H](C)O)C(=O)N[C@@H](Cc1ccc(O)cc1)C(=O)N[C@@H](CC(C)C)C(=O)N[C@@H](CC(=O)O)C(=O)N[C@@H](CCCCN)C(=O)N[C@@H](CCC(N)=O)C(=O)N[C@@H](C)C(=O)N[C@@H](C)C(=O)NC(C)(C)C(=O)N[C@@H](CCC(=O)O)C(=O)N[C@@H](Cc1ccccc1)C(=O)N[C@H](C(=O)N[C@@H](CC(N)=O)C(=O)N[C@@H](Cc1c[nH]c2ccccc12)C(=O)N[C@@H](CC(C)C)C(=O)N[C@@H](CC(C)C)C(=O)N[C@@H](C)C(=O)NCC(=O)NCC(=O)N1CCC[C@H]1C(=O)N[C@@H](CO)C(=O)N[C@@H](CO)C(=O)NCC(=O)N[C@@H](C)C(=O)N1CCC[C@H]1C(=O)N1CCC[C@H]1C(=O)N1CCC[C@H]1C(=O)N[C@@H](CO)C(=O)N[C@@H](CS)C(N)=O)C(C)C
B6: peptide of SEQ ID NO: 51 (peptide)
peptide: Y[dS]QGTFTSDYSIYLDKQAA[Aib]EFVNWLLAGGPSSGAPPPSC(40K‑TE)-NH2
modifications: reading uncertain
B7: peptide of SEQ ID NO: 68 (peptide)
peptide: Y[Aib]QGTFTSDK([γGlu-Myristoyl])SIYLDKQAA[Aib]EFVNWLLAGGPSSGAPPPSC(40K‑ME)-NH2
modifications: reading uncertain
B8: peptide of SEQ ID NO: 58 (peptide)
peptide: Y[Aib]QGTFTSDYSIYLDKEAA[Aib]KFVNWLLAGGPSSGAPPPSC-NH2
modifications: lactam (positions not given here); also: lactam between underlined residues, underlining not shown
B9: peptide of SEQ ID NO: 72 (peptide)
peptide: Y[Aib]EGTFISDYSIYLDKQAA[Aib]EFVNWLLAGGPSSGAPPPSC(40K‑TE)-NH2
modifications: not fully specified; reading uncertain
B10: peptide of SEQ ID NO: 56 (peptide)
peptide: Y[Aib]QGTFTSDYSIYLDEQAAKEFV[Aib]WLLAGGPSSGAPPPSC-NH2
modifications: lactam (positions not given here); also: lactam between underlined residues, underlining not shown
B11: peptide of SEQ ID NO: 60 (peptide)
peptide: Y[Aib]QGTFTSDYSIYLDKQAA[Ac3c]EFVNWLLAGGPSSGAPPPSC-NH2
B12: peptide of SEQ ID NO: 69 (peptide)
peptide: Y[Aib]QGTFTSDK([γGlu-Palmitoyl])SIYLDKQAA[Aib]EFVNWLLAGGPSSGAPPPSC(40K‑ME)-NH2
modifications: reading uncertain
B13: peptide of SEQ ID NO: 53 (peptide)
peptide: H[Aib]QGTFTSDYSIYLDKQAA[Aib]EFVNWLLAGGPSSGAPPPSC(40K‑TE)-NH2
modifications: reading uncertain
B14: peptide of SEQ ID NO: 70 (peptide)
peptide: Y[Aib]QGTFTSDYSIYLDKQAA[Aib]EFVC(40K‑ME)WLLAGGPSSGAPPPSK(Palmitoyl)-NH2
modifications: not fully specified; reading uncertain
B15: peptide of SEQ ID NO: 174 (peptide)
peptide: Y[Aib]QGTFTSDYSIYLDKQAA[Aib]EFVC(40K‑TE PEG)WLLAGGPSSGAPPPSK(C14)-NH2

molecular target: glucagon receptor (UniProt P47871 26-477, limits assumed); assay: cell-based or functional assay
Sequence (P47871 26-477 limits assumed): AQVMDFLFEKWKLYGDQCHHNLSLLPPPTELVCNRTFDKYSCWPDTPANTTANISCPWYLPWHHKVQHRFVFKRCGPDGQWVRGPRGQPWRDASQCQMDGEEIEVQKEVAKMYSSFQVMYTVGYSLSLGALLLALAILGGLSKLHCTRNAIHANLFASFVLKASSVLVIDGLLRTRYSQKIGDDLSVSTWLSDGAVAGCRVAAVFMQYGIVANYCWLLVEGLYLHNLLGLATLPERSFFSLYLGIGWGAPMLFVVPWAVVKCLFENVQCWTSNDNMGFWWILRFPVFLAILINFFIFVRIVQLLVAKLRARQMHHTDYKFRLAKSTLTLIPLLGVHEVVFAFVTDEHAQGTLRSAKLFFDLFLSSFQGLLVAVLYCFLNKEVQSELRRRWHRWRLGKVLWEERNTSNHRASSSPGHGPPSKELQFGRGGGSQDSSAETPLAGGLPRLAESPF

Point of comparison: B14, “EC50 (cAMP reporter)” value 0.018 nM. Against it:
- B1 — 11-fold higher, 0.2 nM
- B2 — 2.3-fold higher, 0.041 nM
- B3 — 31-fold higher, 0.566 nM
- B4 — 24-fold higher, 0.432 nM
- B5 — within 1.5-fold, 0.026 nM
- B6 — 14-fold higher, 0.255 nM
- B7 — 2800-fold higher, 50.1 nM
- B8 — 3.5-fold higher, 0.063 nM
- B9 — 93-fold higher, 1.68 nM
- B10 — 71-fold higher, 1.27 nM
- B11 — 2.6-fold higher, 0.047 nM
- B12 — 3.1-fold higher, 0.055 nM
- B13 — 200-fold higher, 3.51 nM

molecular target: T1, GIP receptor; assay: cell-based or functional assay

Point of comparison: B10, “EC50 (cAMP reporter)” value 1.98 nM. Against it:
- B1 — 330-fold lower, 0.006 nM
- B2 — 28-fold lower, 0.072 nM
- B3 — 4.2-fold lower, 0.467 nM
- B4 — 16-fold lower, 0.122 nM
- B15 — 100-fold lower, 0.019 nM
- B5 — 4.6-fold lower, 0.433 nM
- B6 — 4.6-fold lower, 0.433 nM
- B7 — 2.3-fold lower, 0.862 nM
- B8 — 400-fold lower, 0.005 nM
- B9 — 57-fold lower, 0.035 nM
- B12 — 130-fold lower, 0.015 nM
- B13 — 8.5-fold lower, 0.232 nM
- B14 — 140-fold lower, 0.014 nM

molecular target: GLP-1 receptor (UniProt P43220 24-463, limits assumed); assay: cell-based or functional assay

Point of comparison: B15, “EC50 (cAMP reporter)” value 0.01 nM. Against it:
- B1 — 2-fold lower, 0.005 nM
- B2 — 11-fold higher, 0.108 nM
- B3 — 9.1-fold higher, 0.091 nM
- B4 — 6.3-fold higher, 0.063 nM
- B5 — the same, 0.01 nM
- B6 — 57-fold higher, 0.572 nM
- B7 — 61-fold higher, 0.612 nM
- B8 — within 1.5-fold, 0.014 nM
- B9 — 270-fold higher, 2.69 nM
- B10 — 9.6-fold higher, 0.096 nM
- B11 — 3.6-fold lower, 0.0028 nM
- B12 — 2-fold higher, 0.02 nM
- B13 — 2.7-fold higher, 0.027 nM
- B14 — within 1.5-fold, 0.007 nM
